These results are taken from PMC7736253 (Nature plants, 2020).

As usually defined, the stoichiometry N is a count of units in the complex or per binding partner. By Kd is commonly meant the equilibrium constant for the complex coming apart. Lower therefore signals a tighter complex.

In data set [1] the target is Rubisco holoenzyme (native Rubisco purified from Chlamydomonas cells) (Chlamydomonas reinhardtii (endogenous in strain cMJ030)) (UniProt P00877). Put plainly: cryo-EM structure.
For data set [2] the target is unchanged. Description: SPR. A general note: SPR reads the build-up and loss of mass on a sensor chip optically.
Data set [3] concerns the molecule itself. Description: cryo-EM structure.

EPYC1_(106-135) peptide registered a stoichiometry N in data set [1] of under 8.
In data set [2], EPYC1_(49-72) peptide came in with an equilibrium dissociation constant (Kd) of 3 mM. Also, in data set [1], the stoichiometry N was under 8.

B1: Rubisco large subunit (in the native holoenzyme) (natural protein, UniProt P00877 3-475, looked up)
chain: PQTETKAGAGFKAGVKDYRLTYYTPDYVVRDTDILAAFRMTPQLGVPPEECGAAVAAESSTGTWTTVWTDGLTSLDRYKGRCYDIEPVPGEDNQYIAYVAYPIDLFEEGSVTNMFTSIVGNVFGFKALRALRLEDLRIPPAYVKTFVGPPHGIQVERDKLNKYGRGLLGCTIKPKLGLSAKNYGRAVYECLRGGLDFTKDDENVNSQPFMRWRDRFLFVAEAIYKAQAETGEVKGHYLNATAGTCEEMMKRAVCAKELGVPIIMHDYLTGGFTANTSLAIYCRDNGLLLHIHRAMHAVIDRQRNHGIHFRVLAKALRMSGGDHLHSGTVVGKLEGEREVTLGFVDLMRDDYVEKDRSRGIYFTQDWCSMPGVMPVASGGIHVWHMPALVEIFGDDACLQFGGGTLGHPWGNAPGAAANRVALEACTQARNEGRDLAREGGDVIRSACKWSPELAAACEVWKEIKFEFDTIDKL
Regarding B1, the “stoichiometry N” value in data set [3] is 8.
